A short description of data set [1]: Zeta potential measurement with variable MgCl2 concentration. It is filed as physicochemical. The settings on record: vesicles, 5 mM MgCl2. The text has this: (§1) General Methods. All reagents were bought from TCI or Sigma-Aldrich and used without further purification. DNA synthesis reagents and modifiers were bought from Glen Research or AZCO scientific. 3,4-di(octadecyloxy)benzoic acid was synthesized via a standard literature procedure (Tuffin, R. P.; Toyne, K. J.; Goodby, J. W. J. Mater. Chem. 1996, 6, 1271-1282). All DNA was synthesized on an ABI-391 via standard solid phase synthesis on controlled pore glass supports. Fluorescence measurements were performed on a Zeiss LSM confocal fluorescence microscope. Reaction volumes of 50 μL were used in all fluorescence experiments of this type. […] DNA-surfactant and DNA concentrations were determined via UV-Vis on a Hitachi U-2810 spectrophotometer. Dh was determined by DLS on a Nano-ZS90 Malvern Instrument. Zeta potential was also measured on the Nano-ZS90 Malvern instrument. […] The identities of organic molecules were confirmed by ^1H (400 MHz) and ^13C (100 MHz) NMR spectra recorded on a Varian Mercury Plus spectrometer. […]
Zeta potential measurement with variable MgCl2 concentration. […] The zeta potential of these samples with variable MgCl2 concentrations was then measured by a Nano-ZS90 Malvern instrument. […]

Data set [2] in a line: Critical micelle concentration (CMC) determination with pyrene probe. The data set is classed as physicochemical. The settings on record: micelles after DNA2 hybridization. The protocol:
Critical Micelle Concentration (CMC) determination. A stock solution of pyrene was prepared by adding 1 mg pyrene in 10 mL of 20 mM Tris buffer (pH 7.4) and sonicating for 12 hrs, followed by centrifugation at 12,000×g for 5 min. The supernatant containing pyrene as the fluorescent probe was utilized for this assay and measured on a plate reader fluorometer, SPECTRAMAX GEMINI EM (Molecular Devices). DNA-lipid concentration was measured via UV absorbance and micelles were accordingly diluted serially in 96-well microplates (black well, black bottom, FIA, Greiner Bio-One). Excitation was done over a 300-360 nm wavelength range and the emission was recorded at 390 nm. The slit width for excitation was fixed at 1 nm. The concentration was plotted on a logarithmic scale and the critical micelle concentration was determined at the intercept of the two tangents drawn where the decreasing surface tension becomes constant.

Data set [3] in a line: Particle size by DLS, TEM, AFM, SEM. The data set is classed as physicochemical.
Source text: as §1
General Methods. […] Fluorescence measurements were performed with a microplate reader (Perkin Elmer, HTS7000 Plus, λex=485 nm, λem=535 nm) using black 96 well plates. Reaction volumes of 100 μL were used in all fluorescence experiments of this type. […]

In data set [4] the test system is DNAzyme. The data set can be described thus: DNAzyme catalysis experiments: particle substrate vs ssDNA substrate. The data set is classed as biochemical. The protocol: DNAzyme catalysis experiments. Fluorescence was directly measured at time points of 2 min, 5 min, 10 min, and 15 min after adding DNAzyme to F-ssDNA solutions in a 96-well plate. Maximum fluorescence for the DNAzyme (5 nM) added to micellar particles (0.14 g/L) at 15 minutes was set to a value of 1 for normalization of data. Complete consumption of particle bound substrate was confirmed by a calibration curve plotted for fluorescence vs concentration of a fluorescein-modified oligonucleotide (DNA-F—see above for synthesis and sequence). i.e. plateau in resulting curve is due to consumption of substrate not product inhibition. […] Fluorescent product from shell DNA cleavage was measured from supernatant that passed through a 10,000 MWCO spin tube filter. i.e. particles are left behind, and fluorescent product comes through for analysis at each time point. […]
The DNAzyme catalyst consists of a conserved DNA sequence forming a catalytic domain with 5′- and 3′-ends as recognition sequences.^22 Therefore, a DNA substrate with a single RNA base (rA) as the site of cleavage was chosen for incorporation in the DNA-brush copolymer architecture used to form micellar aggregates (FIG. 25). […] By centrifuging at 14,000×g for 30 seconds at given time points, the ssDNA product was separated from particles as it passed through the MWCO filter for analysis by fluorescence. […]

d = 2'-deoxy (DNA); r = 2'-OH (RNA)

Data on 2 substances can be found in patent publication US9040626B2, “Nanofibers and morphology shifting micelles” (The Regents of the University of California, priority 2009, dated 2015).

In data set [1], “DNA1-lipid: 3,4-di(octadecyloxy)benzoic acid conjugated to 5′-amino 9-mer ssDNA 5′-NH2-TCGCACCCA-3′; assembles into vesicles” showed a zeta-potential of −13 mV. This substance also returned a critical micelle concentration in data set [2] of 300 nM. The micelle size in data set [3] (after DNA2 addition to vesicles) was 20-25 nm. Besides, in data set [3] (spherical vesicles after dialysis, Tris 50 mM pH 7.4), the vesicle diameter result is given as “approx. 500 nm”.

With “Fluorescein-5′-TCGCACCCrAGTCTCTCTCC-3′-Dabcyl (DNA TCGCACCCAGTCTCTCTCC; sugars from the 5' end d8 r1 d10, backbone not given here; further chemistry not fully specified) [F-ssDNA, fluorogenic single-stranded DNA substrate]”, the DNAzyme turnovers in data set [4] (2 μM substrate, 5 nM catalyst) came out at 1.5 turnovers. For the same substance, in data set [4] (F-ssDNA 1 μM, DNAzyme 5 nM), the “DNAzyme turnover over the same time scale (15 minutes)” value is “low turnover”.
